Our source for the ECL signal values is patent publication US20120058906A1 (published 2012).

Assay [1] has as its target T1, rHuman CD44/Fc Chimera, CF (R&D Systems Cat#3660-CD) (human, UniProt P16070 21-220).
T1 construct: Bought Fc chimera; not shown: Fc of the bought chimera
The experiment in a line: ECL (MSD multi-spot), antigen on plate, Fab 50 nM.

The target of assay [2] is T2, rHuman ErbB2/Fc Chimera, CF (R&D Systems Cat#1129-ER) (human, UniProt P04626 23-652).
T2 construct: Bought Fc chimera; also called HER2/neu; not shown: Fc of the bought chimera
The experiment in a line: ECL (MSD multi-spot), antigen on plate, Fab 50 nM.

Assay [3] has as its target T3, Recombinant Human DLL4 (R&D Systems Cat#1506-D4/CF) (human, UniProt Q9NR61 27-524).
T3 construct: Bought recombinant protein; also called delta-like protein 4
The experiment in a line: ECL (MSD multi-spot), antigen on plate, Fab 50 nM.

Assay [4] concerns the target T4, rHuman EGF R/Fc Chimera, CF (R&D Systems Cat#344-ER) (human, UniProt P00533 25-645).
T4 construct: Bought reagent; also called epidermal growth factor receptor; Fc part of the bought chimera not given
The experiment in a line: ECL (MSD multi-spot), antigen spotted on plate; Fab 44.1 nM; blank spot 200.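 Further: blank spot per well as comparator with Hit at signal to blank ratio of 4 or more.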

Assay [5] has as its target T5, rHuman Erythropoietin R/Fc Chimera, CF (R&D Systems Cat#963-ER) (human, UniProt P19235 25-250).
T5 construct: Bought reagent; also called EPO R/Fc; Epo R; Fc part of the bought chimera not given
T5 sequence: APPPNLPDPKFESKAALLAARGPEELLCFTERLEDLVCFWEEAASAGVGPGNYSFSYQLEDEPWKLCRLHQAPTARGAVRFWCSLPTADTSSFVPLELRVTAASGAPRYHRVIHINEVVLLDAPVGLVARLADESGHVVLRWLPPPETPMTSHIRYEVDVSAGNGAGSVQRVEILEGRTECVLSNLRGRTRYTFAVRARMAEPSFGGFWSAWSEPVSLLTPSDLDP
The assay is described as above.

Assay [6] has as its target T6, rHuman HGF R/c-MET/Fc Chimera, CF (R&D Systems Cat#358-MT/CF) (human, UniProt P08581 25-932).
T6 construct: Bought reagent; also called HGF R/Fc; hepatocyte growth factor receptor; Fc part of the bought chimera not given
The description is as above.

For assay [7], the target named is T7, rHuman ErbB2/Fc Chimera, CF (R&D Systems Cat#1129-ER) (human, UniProt P04626 23-652).
T7 construct: Bought reagent; also called HER2/neu; human epidermal growth factor 2 receptor; Fc part of the bought chimera not given
The assay is described as above.

Assay [8] concerns the target T8, rHuman P-Cadherin/Fc Chimera, CF (R&D Systems Cat#861-PC) (human, UniProt P22223 108-654).
T8 construct: Bought reagent; also called CDH3; Fc part of the bought chimera not given
The description is as above.

The target in assay [9] is T9, rHuman Notch-1/Fc Chimera, CF (R&D Systems Cat#3647-TK) (human, UniProt P46531 19-526).
T9 construct: Bought reagent; Fc part of the bought chimera not given
The assay is described as above.

The target of assay [10] is T10, rHuman EGF R/Fc Chimera, CF (R&D Systems Cat#344-ER) (human, UniProt P00533 25-645).
T10 construct: Purchased Fc chimera; not shown: Fc portion of the purchased chimera
The experiment in a line: MSD ECL multi-spot plate, antigen immobilized; Fab 1000 nM; blank spot 427.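 Further: blank spot per well as comparator with Hit at signal to blank ratio of 4 or more.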

The target in assay [11] is T11, rHuman CD44/Fc Chimera, CF (R&D Systems Cat#3660-CD) (human, UniProt P16070 21-220).
T11 construct: Purchased Fc chimera; not shown: Fc portion of the purchased chimera
The description is as above.

The target in assay [12] is T12, rHuman HGF R/c-MET/Fc Chimera, CF (R&D Systems Cat#358-MT/CF) (human, UniProt P08581 25-932).
T12 construct: Purchased Fc chimera; also called HGF R/Fc; not shown: Fc portion of the purchased chimera
The description is as above.

Assay [13] concerns the target T13, rHuman IGF-1 sR (IGF-1 sR), CF (R&D Systems Cat#391-GR) (human, UniProt P08069 31-932).
T13 construct: Purchased soluble receptor; also called insulin-like growth factor-1 soluble receptor; IGF-R1
The description is as above.

Assay [14] concerns the target T14, rHuman Notch-1/Fc Chimera, CF (R&D Systems Cat#3647-TK) (human, UniProt P46531 19-526).
T14 construct: Purchased Fc chimera; not shown: Fc portion of the purchased chimera
The description is as above.

Assay [15] has as its target T15, rHuman Erythropoietin R/Fc Chimera, CF (R&D Systems Cat#963-ER) (human, UniProt P19235 25-250).
T15 construct: Purchased Fc chimera; also called EPO R/Fc; Epo R; not shown: Fc portion of the purchased chimera
T15 sequence: T5 sequence
Described as above.

Assay [16] has as its target T16, rHuman P-Cadherin/Fc Chimera, CF (R&D Systems Cat#861-PC) (human, UniProt P22223 108-654).
T16 construct: Purchased Fc chimera; not shown: Fc portion of the purchased chimera
The assay is described as above.

In assay [17] the target is T17, rHuman ErbB2/Fc Chimera, CF (R&D Systems Cat#1129-ER) (human, UniProt P04626 23-652).
T17 construct: Purchased Fc chimera; also called HER2/neu; not shown: Fc portion of the purchased chimera
The assay is described as above.

Assay [18] has as its target T18, Recombinant Human DLL4 (R&D Systems Cat#1506-D4/CF) (human, UniProt Q9NR61 27-524).
T18 construct: Purchased recombinant protein; also called delta-like protein 4
The description is as above.

B1: Fab VH1-46_IGHD6-6*01_IGHJ1*01_S102A_S103P_S104Y_H111Y & L6_IGKJ1*01 (Fab, V domains shown)
VH: QVQLVQSGAEVKKPGASVKVSCKASGYTFTSYYMHWVRQAPGQGLEWMGIINPSGGSTSYAQKFQGRVTMTRDTSTSTVYMELSSLRSEDTAVYYCAREEYAPYSAEYFQYWGQGTLVTVSS
VL: not shown
notes: Fab made in E. coli; The heavy chain also carries CH1 with Flag and His tags from Plasmid A, and the light chain carries kappa CL from Plasmid C
For B1, the ECL signal in assay [1] worked out at 345 ECL signal; in [2], 470 ECL signal; in assay [3], 201000 ECL signal.

B2: Fab VH1-46_IGHD3-10*01_IGHJ4*01 & B3_IGKJ1*01 (Fab, V domains shown)
VH: QVQLVQSGAEVKKPGASVKVSCKASGYTFTSYYMHWVRQAPGQGLEWMGIINPSGGSTSYAQKFQGRVTMTRDTSTSTVYMELSSLRSEDTAVYYCAREYYYGSGSYYNDYFDYWGQGTLVTVSS
VL: not shown
notes: also called IGHV1-46*01
With B2, the ECL signal in assay [4] came out at 428; in assay [5], 2390; in assay [6], 336; in assay [7] it was 347; in [8], 343; in [9] it was 331.

B3: Fab VH5-51_IGHD5-18*01>3_IGHJ4*01_G100R & V3-4_IGLJ1*01 (Fab, V domains shown)
VH: EVQLVQSGAEVKKPGESLKISCKGSGYSFTSYWIGWVRQMPGKGLEWMGIIYPGDSDTRYSPSFQGQVTISADKSISTAYLQWSSLKASDTAMYYCARRRYSYGYDYFDYWGQGTLVTVSS
VL: QTVVTQEPSFSVSPGGTVTLTCGLSSGSVSTSYYPSWYQQTPGQAPRTLIYSTNTRSSGVPDRFSGSILGNKAALTITGAQADDESDYYCVLYMGSGISYVFGTGTKVTVL
notes: It was expressed as a Fab: CH1 with tags from Plasmid A and lambda CL from Plasmid E; also called Fab No. 23
As for B3, the ECL signal in assay [10] is 721 ECL signal; in assay [11] it was 559 ECL signal; in [12], 778 ECL signal; in assay [13] it was 733 ECL signal; in [14], 761 ECL signal; in assay [15], 666 ECL signal. In addition, the values for the ECL signal in assay [16], in [17] and in assay [18] were 762 ECL signal, 945 ECL signal and 23400 ECL signal, respectively.
